Results on eleven molecules are retold here after patent US20110262439A1 (Amgen, published 2011).

Assay [1] concerns the target T1, mutated human c-MET antigen with murine membrane-distal epitopes (extracellular domains fused to a truncated … (human/murine chimera)).
T1 construct: also called cMET-10
T1 chain: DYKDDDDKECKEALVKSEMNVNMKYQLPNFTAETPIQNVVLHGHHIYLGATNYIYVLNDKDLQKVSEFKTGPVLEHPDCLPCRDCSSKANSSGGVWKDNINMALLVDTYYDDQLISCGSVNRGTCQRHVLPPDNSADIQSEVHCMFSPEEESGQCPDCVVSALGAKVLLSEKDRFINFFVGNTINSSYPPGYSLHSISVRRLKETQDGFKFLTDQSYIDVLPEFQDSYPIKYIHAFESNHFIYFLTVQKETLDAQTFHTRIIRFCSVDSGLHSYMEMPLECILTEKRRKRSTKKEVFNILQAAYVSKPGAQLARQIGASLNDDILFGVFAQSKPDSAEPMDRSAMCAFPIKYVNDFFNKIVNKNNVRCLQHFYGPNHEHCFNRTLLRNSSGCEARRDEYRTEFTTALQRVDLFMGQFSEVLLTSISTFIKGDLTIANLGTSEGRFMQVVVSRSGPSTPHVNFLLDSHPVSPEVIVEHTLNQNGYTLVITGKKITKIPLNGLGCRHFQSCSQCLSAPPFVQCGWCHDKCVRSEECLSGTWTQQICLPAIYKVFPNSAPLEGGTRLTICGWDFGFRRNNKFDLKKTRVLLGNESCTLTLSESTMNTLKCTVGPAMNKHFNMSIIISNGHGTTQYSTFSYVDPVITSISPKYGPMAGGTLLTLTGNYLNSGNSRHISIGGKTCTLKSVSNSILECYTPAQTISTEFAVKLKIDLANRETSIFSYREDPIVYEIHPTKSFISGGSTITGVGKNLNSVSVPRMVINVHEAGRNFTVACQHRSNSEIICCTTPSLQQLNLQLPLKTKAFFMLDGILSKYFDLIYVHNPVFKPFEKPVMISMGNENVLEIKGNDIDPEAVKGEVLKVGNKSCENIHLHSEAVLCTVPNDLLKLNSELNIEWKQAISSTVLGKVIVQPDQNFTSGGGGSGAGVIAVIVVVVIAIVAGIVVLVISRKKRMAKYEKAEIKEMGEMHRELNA
Put plainly: FACS, CHO transfectants, periplasmic preparation.

The target of assay [2] is T2, mutated murine c-MET antigen with human membrane-distal epitopes (extracellular domains fused to a truncated … (murine/human chimera)).
T2 construct: also called cMET-8
T2 chain: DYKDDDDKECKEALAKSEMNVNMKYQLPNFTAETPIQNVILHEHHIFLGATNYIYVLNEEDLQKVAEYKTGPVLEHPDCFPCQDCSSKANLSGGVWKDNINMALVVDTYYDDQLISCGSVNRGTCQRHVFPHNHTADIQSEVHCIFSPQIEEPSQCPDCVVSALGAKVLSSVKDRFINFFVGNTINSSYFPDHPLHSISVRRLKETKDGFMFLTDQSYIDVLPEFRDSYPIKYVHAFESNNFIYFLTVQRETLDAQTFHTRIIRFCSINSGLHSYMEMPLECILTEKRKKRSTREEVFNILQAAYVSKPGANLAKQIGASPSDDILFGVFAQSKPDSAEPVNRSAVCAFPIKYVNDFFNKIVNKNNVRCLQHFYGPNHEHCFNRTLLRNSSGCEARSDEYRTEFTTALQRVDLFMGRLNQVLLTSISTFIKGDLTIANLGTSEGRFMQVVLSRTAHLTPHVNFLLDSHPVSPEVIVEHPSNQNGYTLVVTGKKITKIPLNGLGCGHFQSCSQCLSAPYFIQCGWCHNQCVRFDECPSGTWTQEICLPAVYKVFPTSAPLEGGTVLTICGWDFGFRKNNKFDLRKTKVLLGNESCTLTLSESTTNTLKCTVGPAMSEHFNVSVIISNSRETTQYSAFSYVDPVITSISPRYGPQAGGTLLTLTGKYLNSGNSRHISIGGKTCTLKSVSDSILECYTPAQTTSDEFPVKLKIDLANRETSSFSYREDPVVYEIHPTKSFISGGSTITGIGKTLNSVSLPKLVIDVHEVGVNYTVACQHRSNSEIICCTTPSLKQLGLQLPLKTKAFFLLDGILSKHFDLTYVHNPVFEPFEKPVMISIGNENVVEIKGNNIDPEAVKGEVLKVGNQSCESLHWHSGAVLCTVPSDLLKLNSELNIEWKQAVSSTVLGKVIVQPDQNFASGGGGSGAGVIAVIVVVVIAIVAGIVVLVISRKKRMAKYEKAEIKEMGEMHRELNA
Put plainly: FACS, CHO transfectants, periplasmic preparation. Background: A flow cytometer gives signals particle by particle.

B1: ME06D1HL (scFv)
scFv: EVQLLEQSGAEVVRPGTSVKMSCKAAGYTFTKYWIGWVKQRPGHGLEWIGDIHPGGGFANYNEKFKGKATLTADTSSSTAYMQLSRLTSDDSAIYYCARSGYDYGSSYDYHGMDYWGQGTTVTVSSGGGGSGGGGSGGGGSELVMTQSPSSLTVTAGEKVTMSCKSSQSLLNSGNQKNYLAWYQQKPGQPPKLLIYGASTRESGVPDRFTGSGSGTDFTLTISSVQAEDLADYFCQQHYSTPYTFGGGTKLEIKTGDYKDDDDKHHHHHH
notes: murine anti-c-MET scFv; E. coli periplasmic preparation
Take B1: the binding result is “binds” in assay [1] and “no binding” in assay [2].

B2: ME06C7HL (scFv)
scFv: EVQLLEQSGAEVVRPGTSVKMSCKAAGYTFTKYWIGWVKQRPGHGLEWIGDIHPGGGFANYNEKFKGKATLTADTSSSTAYMQLSRLTSDDSAIYYCARSGYDYGSSYDYHGMDYWGQGTTVTVSSGGGGSGGGGSGGGGSELQMTQSPTSLAVSLGQRATISCRASQTVYYDGNNYMNWYQHKPGQPPKLLIYATSNLESGIPARFSGSGSGTDFTLNIHPVEAEDAATYYCQQSYEDPYTFGGGTKLEIKTGDYKDDDDKHHHHHH
notes: as for B1
As for B2, the binding result in assay [1] was “binds”; in assay [2], “no binding”.

B3: ME05F6HL (scFv)
scFv: EVQLLEQSGAEVVRPGTSVKMSCKAAGYTFTKYWIGWVKQRPGHGLEWIGDIHPGGGFANYNEKFKGKATLTADTSSSTAYMQLSRLTSDDSAIYYCARSGYDYGSSYDYHGMDYWGQGTTVTVSSGGGGSGGGGSGGGGSELVMTQSPSSLSASLGERVSLTCRASQEISGYLSWLQQKPDGTIKRLIYAASTLDSGVPKRFSGSRSGSDYSLTISSLESEDFADYYCLQYASYPPTFGGGTKLEIKTGDYKDDDDKHHHHHH
notes: as for B1
In the case of B3, the binding result in assay [1] is “binds”; in assay [2], “no binding”.

B4: ME06F2HL (scFv)
scFv: EVQLLEQSGAELMKPGASVKISCKATGYTFSNYWIGWVKQRPGHGLEWIGDIYPGGSYTNYNEKFKGKVTLTADTSSRTAYMQLSSLTFEDSAIYYCARSGYDYASDYDYHGMDYWGQGTTVTVSSGGGGSGGGGSGGGGSELVLTQSPSSMSASLGDRITITCQATQDIVKNLNWYQQKPGKPPSFLIYYATELAEGVPSRFSGSGSGSDYSLTISNLESEDFADYYCLQFYEFPYTFGGGTKLEIKTGDYKDDDDKHHHHHH
notes: as for B1
As to B4, the figures for the binding result in assay [1] and in assay [2] were “binds” and “no binding”, respectively.

B5: ME06D2HL (scFv)
scFv: EVQLLEQSGADLVRPGTSVKLSCKAAGYTFSRYWISWIRQRPGHGLEWIGEIYPGGGYGNYNENFKDKVTLTADTSSSTAYMQLSSLTSEDSAIYYCARSGYDYGSKYDYYGLDYWGQGTTVTVSSGGGGSGGGGSGGGGSELVMTQSPSSMYASLGERVTITCKASQDINSYLSWFQQKPGKSPKTLIYRANRLVDGVPSRFSGSGSGQDYSLTISSLEYEDMGIYYCLQYDAFPPTFGAGTKLEIKTGDYKDDDDKHHHHHH
notes: as for B1
Turning to B5, the binding result in assay [1] is “binds”; in assay [2] it was “no binding”.

B6: ME06C6HL (scFv)
scFv: EVQLLEQSGAELVRPGTSVKIPCKATGYTFSYYWIGWVKQRPGHGLEWIGDIYPGGGYSNYNEKFKGKATLTADTSSSTAYMQLSGLTSEDSAIYYCARSGYDYGSDYDYHGLDYWGQGTTVTVSSGGGGSGGGGSGGGGSELVLTQSPASLAVSLGQRATISCRASESVEYYGTSLMQWYQQKPGQPPKLLIYAASNVESGVPARFSGSGSGTDFSLNIHPVEEDDIAMYFCQQSRKVPYTFGGGTKLEIKTGDYKDDDDKHHHHHH
notes: as for B1
Take B6: the binding result in assay [1] is given as “binds”; in assay [2], “no binding”.

B7: ME06E10HL (scFv)
scFv: EVQLLEQSGADLVRPGTSVKLSCKAAGYTFSRYWISWIRQRPGHGLEWIGEIYPGGGYGNYNENFKDKVTLTADTSSSTAYMQLSSLTSEDSAIYYCARSGYDYGSKYDYYGLDYWGQGTTVTVSSGGGGSGGGGSGGGGSELVMTQSPSSLSASLGERVSLTCRASQEISGYLSWLQQKPDGTIKRLIYAASTLDSGVPKRFSGSRSGSDYSLTISSLESEDFADYYCLQYASSPYTFGGGTKLEIKTGDYKDDDDKHHHHHH
notes: as for B1
As for B7, the binding result in assay [1] was “binds”; in assay [2] it was “no binding”.

B8: ME99B1HL (scFv)
scFv: EVQLLEQSGAELVRPGTSVKISCKATGYTFSNYWISWVKYRPGHGLEWIGDIYPGGSYTNYNEKFKGKVTLTADTSSRTAYMQLSGLTFEDSAIYYCARSGYDYGSDYDYHGMDYWGQGTTVTVSSGGGGSGGGGSGGGGSELQMTQSPASLSASVGETVTITCRASENIYSNLAWYQQKQGKSPQLLVYAATNLADGVPSRFSGSRSGSDYSLTISSLESEDFVDYYCLQYASYPYTFGGGTKLEIKTGDYKDDDDKHHHHHH
notes: as for B1
In the case of B8, in assay [2], the binding result was “no binding”.

B9: ME75H6HL (scFv)
scFv: EVQLLEQSGAELVRPGTSVKMSCKAAGYTFTKYWIGWVKQRPGHGLEWIGDIHPGGGYANYNEKFKGKATLTADTSSSTAYMQLSRLTSDDSAIYYCARSGYDYGSSYDYHGMDFWGQGTTVTVSSGGGGSGGGGSGGGGSELQMTQSPASLSASVGEPVTFTCRASENIYSYLAWYQQKQGKSPQLLIYGATNLADGMSSRFSGSGSGRQYSLKISSLHPDDVATYYCQNVLSTPYTFGGGTKLEIKTGDYKDDDDKHHHHHH
notes: as for B1
Consider B9, for which the values for the binding result in assay [1] and in assay [2] were “binds” and “no binding”, respectively.

B10: ME05B7HL (scFv)
scFv: EVQLLEQSGAELVRPGTSVKISCKTTGYTFGYYWISWLKQRPGHGLEWIGDIYPGGGYTNYHEKFKGKVTLTADTSSRTAYMQLSSLTFEDSAIYYCARSGYDYGSDYDYHGMDYWGQGTTVTVSSGGGGSGGGGSGGGGSELVMTQTPSSLSASLGDRVTISCRASQGISNYLNWYQQKPDGSVKLLIYYTSRLHSGVPSRFSGSGSGTDYSLTISNLDQEDIATYFCQQGNTLPWTFGGGTKLEIKTGDYKDDDDKHHHHHH
notes: as for B1
For the molecule B10, the values for the binding result in assay [1] and in assay [2] were “binds” and “no binding”, respectively.

B11: ME06B7HL (scFv)
scFv: EVQLLEQSGAELVRPGTSVKISCKATGYTFTTYWLGWVKQRPGHGLEWIGEIHPGGGYTNYNEKFKGKATLTADTSSSTAYMQLSRLTSDDSAIYYCARSGYDYGSSYDYYGMDYWGQGTTVTVSSGGGGSGGGGSGGGGSELVMTQSPSSLSASLGERVSLTCRASQDIGSSLNWLQQEPDGTIKRLIYATSSLDSGVPKRFSGSRSGSDYSLTISSLESEDFVDYYCLQYASSPYTFGGGTKLEIKTGDYKDDDDKHHHHHH
notes: as for B1
Regarding B11, the binding result in assay [1] is on record as “binds”; in assay [2], “no binding”.
